Columns and labels:
[1] = target: T1, human VEGF165 (human, UniProt P15692-4 27-191); assay: ELISA, relative binding activity; final formula 40 mg/mL, 2-8 C, 12M
T1 construct: all are put under this molecule; also called VEGF A; VEGFA

[2] = target: T2, human Ang2 (human, UniProt O15123 19-496, limits assumed); assay: as above
T2 construct: Bought proteins; also called hAng2-biotin; Ang2-Bio (Sino)
T2 sequence (looked up): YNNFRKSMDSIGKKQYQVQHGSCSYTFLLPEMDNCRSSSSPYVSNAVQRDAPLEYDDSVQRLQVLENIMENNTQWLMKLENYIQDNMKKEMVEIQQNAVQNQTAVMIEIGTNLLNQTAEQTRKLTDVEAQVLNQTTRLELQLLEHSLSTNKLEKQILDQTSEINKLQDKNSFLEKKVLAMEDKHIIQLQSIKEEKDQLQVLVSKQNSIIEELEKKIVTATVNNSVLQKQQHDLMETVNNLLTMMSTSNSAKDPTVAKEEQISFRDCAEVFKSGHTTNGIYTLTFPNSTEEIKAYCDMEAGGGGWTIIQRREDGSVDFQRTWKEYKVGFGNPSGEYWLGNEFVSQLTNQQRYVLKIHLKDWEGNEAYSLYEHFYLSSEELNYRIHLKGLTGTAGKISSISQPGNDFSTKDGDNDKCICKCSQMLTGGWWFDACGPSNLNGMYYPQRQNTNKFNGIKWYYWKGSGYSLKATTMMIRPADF

[3] = target: T1, human VEGF165; assay: ELISA, relative binding activity; IEX04-012 about 40 mg/mL in F1, 40 C, 0 weeks
[4] = target: T2, human Ang2; assay: as above
[5] = target: T1, human VEGF165; assay: ELISA, relative binding activity; IEX04-012 about 40 mg/mL in F10, 40 C, 1 week
[6] = target: T2, human Ang2; assay: as above
[7] = target: T1, human VEGF165; assay: ELISA, relative binding activity; final formula 40 mg/mL, 2-8 C, 6M
[8] = target: T1, human VEGF165; assay: ELISA, relative binding activity; 120 mg/mL formula, 2-8 C, 12M
[9] = target: T2, human Ang2; assay: as above
[10] = target: T1, human VEGF165; assay: ELISA, relative binding activity; IEX04-012 about 40 mg/mL in F6, 40 C, 0 weeks
[11] = target: T2, human Ang2; assay: as above
[12] = target: T1, human VEGF165; assay: ELISA, relative binding activity; 120 mg/mL formula, 25 C, 2M
[13] = target: T2, human Ang2; assay: as above
[14] = target: T1, human VEGF165; assay: ELISA, relative binding activity; 120 mg/mL formula, 40 C, 2W
[15] = target: T2, human Ang2; assay: as above
[16] = target: T1, human VEGF165; assay: ELISA, relative binding activity; final formula 40 mg/mL, 25 C, 1M
[17] = target: T2, human Ang2; assay: as above
[18] = target: T1, human VEGF165; assay: ELISA, relative binding activity; IEX04-012 about 40 mg/mL in F2, 40 C, 0 weeks
[19] = target: T2, human Ang2; assay: as above
[20] = target: T1, human VEGF165; assay: ELISA, relative binding activity; final formula 40 mg/mL, 25 C, 2M
[21] = target: T2, human Ang2; assay: as above
[22] = target: T1, human VEGF165; assay: ELISA, relative binding activity; final formula 40 mg/mL, 40 C, 2W
[23] = target: T2, human Ang2; assay: as above
[24] = target: T1, human VEGF165; assay: ELISA, relative binding activity; 120 mg/mL formula, 25 C, 3M
[25] = target: T2, human Ang2; assay: as above

T1 sequence (P15692 other isoform, or with tags, fused parts or gaps limits assumed): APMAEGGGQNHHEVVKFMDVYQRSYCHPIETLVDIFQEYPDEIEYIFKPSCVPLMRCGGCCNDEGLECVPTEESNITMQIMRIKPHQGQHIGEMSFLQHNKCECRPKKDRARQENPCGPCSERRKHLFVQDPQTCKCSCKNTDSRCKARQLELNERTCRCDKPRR

B1: IEX04-012 (bispecific antibody)
chain: DIQLTQSPSSLSASVGDRVTITCSASQDISNYLNWYQQKPGKAPKVLIYFTSSLHSGVPSRFSGSGSGTDFTLTISSLQPEDFATYYCQQYSTVPWTFGCGTKVEIKGGGGSGGGGSGGGGSGGGGSEVQLVESGGGLVQPGGSLRLSCAASGYDFTHYGMNWVRQAPGKCLEWVGWINTYTGEPTYAADFKRRFTFSLDTSKSTAYLQMNSLRAEDTAVYYCAKYPYYYGTSHWYFDVWGQGTLVTVSSGGGGSGGGGSGGGGSEVQLLESGGGLVQPGGSLRLSCAASGFALDYYAIGWFRQAPGKGLEGVSCISSGEGSTYYADSVKGRFTISRDNSKNTVYLQMNSLRAEDTAVYYCATDSRGDDVACEGLRRNEYDYWGQGTLVTVSS
[1]
  Relative binding Activity to VEGF A (ELISA, %): 100%
[2]
  Relative binding Activity to Ang2 (ELISA, %): 96%
[3]
  Relative binding Activity to VEGF (ELISA, %): 100%
[4]
  Relative binding Activity to Ang2 (ELISA, %): 100%
[5]
  Relative binding Activity to VEGF (ELISA, %): 99%
[6]
  Relative binding Activity to Ang2 (ELISA, %): 98%
[7]
  Relative binding Activity to VEGF A (ELISA, %): 99%
[8]
  Relative binding Activity to VEGF A (ELISA, %): 104%
[9]
  Relative binding Activity to Ang2 (ELISA, %): 104%
[10]
  Relative binding Activity to VEGF (ELISA, %): 100%
[11]
  Relative binding Activity to Ang2 (ELISA, %): 100%
[12]
  Relative binding Activity to VEGF A (ELISA, %): 92%
[13]
  Relative binding Activity to Ang2 (ELISA, %): 84%
[14]
  Relative binding Activity to VEGF A (ELISA, %): 113%
[15]
  Relative binding Activity to Ang2 (ELISA, %): 81%
[16]
  Relative binding Activity to VEGF A (ELISA, %): 98%
[17]
  Relative binding Activity to Ang2 (ELISA, %): 93%
[18]
  Relative binding Activity to VEGF (ELISA, %): 100%
[19]
  Relative binding Activity to Ang2 (ELISA, %): 100%
[20]
  Relative binding Activity to VEGF A (ELISA, %): 102%
[21]
  Relative binding Activity to Ang2 (ELISA, %): 84%
[22]
  Relative binding Activity to VEGF A (ELISA, %): 91%
[23]
  Relative binding Activity to Ang2 (ELISA, %): 86%
[24]
  Relative binding Activity to VEGF A (ELISA, %): 106%
[25]
  Relative binding Activity to Ang2 (ELISA, %): 75%
